These results are taken from article PMC7567103 (Nature Communications, 2020).

Numbering of substitutions follows the chain as printed. Where no end group is shown, it is not given here.

Assay [1] concerns the target GHRHR(23-423) (human) (UniProt Q02643).
The test system of assay [2] is GHRHR WT. Nature of the assay: cAMP accumulation, GHRH vs GHRH(D3A) (Supplementary Fig. 6c). It is filed as cell-based, human. Particulars: D3A in GHRH; WT receptor. As to the method: GHRH-stimulated cAMP accumulation was measured by a LANCE Ultra cAMP kit (PerkinElmer). Briefly, 24 h after transfection with GHRHR(23-423), GHRHR(23-405), GHRHR(23-405)-LgBiT-2MBP, or HA-Flag-GHRHR (WT and mutants), HEK 293 T cells (3000/well in 384-well white plates, PerkinElmer) were digested by 0.2% (w/v) EDTA and 5 μL stimulation buffer (HBSS supplemented with 5 mM HEPES, 0.5 mM IBMX, and 0.1% (w/v) BSA, pH 7.4). Different concentrations (5 μL) of GHRH were then added and the stimulation lasted for 30 min at RT. The reaction was stopped by adding 5 μL Eu-cAMP tracer and 5 μL ULight-anti-cAMP. After 1 h RT incubation, TR-FRET signals (excitation: 320 nm, emission: 615 and 665 nm) were measured by an EnVision (PerkinElmer).
(cAMP levels reflect the balance of adenylyl cyclase and phosphodiesterase activity.)

Assay [3] addresses GHRHR(23-423) (WT) (human) (UniProt Q02643).
Assay [4] concerns the target HA-Flag-GHRHR C195A (human) (UniProt Q02643).
Assay [5] deals with HA-Flag-GHRHR F187A (human) (UniProt Q02643).
For assay [6], the target named is HA-Flag-GHRHR H210A (human) (UniProt Q02643).
Assay [7] concerns the target HA-Flag-GHRHR K182A (human) (UniProt Q02643).
Assay [8] concerns the target HA-Flag-GHRHR N346A (human) (UniProt Q02643).
The target in assay [9] is HA-Flag-GHRHR R357A (human) (UniProt Q02643).
Assay [10] addresses HA-Flag-GHRHR T213A (human) (UniProt Q02643).
The target of assay [11] is HA-Flag-GHRHR W282A (human) (UniProt Q02643).
The target of assay [12] is T1, HA-Flag-GHRHR K182A (human, UniProt Q02643 23-423, K182^2.67bA).
T1 sequence (looked up): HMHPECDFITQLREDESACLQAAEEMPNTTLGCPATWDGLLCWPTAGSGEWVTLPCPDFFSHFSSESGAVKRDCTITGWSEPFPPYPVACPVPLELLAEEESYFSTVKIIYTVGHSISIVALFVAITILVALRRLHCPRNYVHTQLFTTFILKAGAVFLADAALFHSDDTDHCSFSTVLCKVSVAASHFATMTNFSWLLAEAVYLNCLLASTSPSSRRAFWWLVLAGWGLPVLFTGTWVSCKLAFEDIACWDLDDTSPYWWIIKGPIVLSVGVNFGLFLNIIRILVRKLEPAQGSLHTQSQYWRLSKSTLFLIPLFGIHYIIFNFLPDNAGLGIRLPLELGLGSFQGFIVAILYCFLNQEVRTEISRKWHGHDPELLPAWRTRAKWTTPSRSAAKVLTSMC
Nature of the assay: cell-based or functional assay.

Assay [13] deals with T2, HA-Flag-GHRHR F187A (human, UniProt Q02643 23-423, F187^ECL1A).
T2 sequence (looked up): T1 sequence (looked up) with A160K, F165A
In words: cell-based or functional assay.

In assay [14] the target is T3, HA-Flag-GHRHR C195A (human, UniProt Q02643 23-423, C195^ECL1A).
T3 sequence (looked up): T1 sequence (looked up) with A160K, C173A
In words: cell-based or functional assay.

Assay [15] has as its target T4, HA-Flag-GHRHR R357C (human, UniProt Q02643 23-423, R357C).
T4 sequence (looked up): T1 sequence (looked up) with A160K, R335C
In words: cell-based or functional assay.

In assay [1], GHRH D^3PA (peptide) displayed a cAMP accumulation in HEK 293 T cells: fold loss of potency of 4 fold.

Consider “GHRH(D3A): GHRH with Asp3 replaced by Ala (YAAAIFTNSYRKVLGQLSARKLLQDIMSRQQGESNQERGARARL; ends and bridges not checked; UniProt P01286 32-75, looked up, variant D3A)”, for which the “diminished potency vs GHRH” value in assay [2] is reported as ~ 4 fold.

Take “growth hormone-releasing hormone (GHRH) (from UniProt P01286 32-75) (peptide)”: the Supplementary Table 4, Wild-type: pEC50 of GHRH-induced cAMP accumulation, HEK 293T cells in assay [3] was 9.74 -log M. Further, the Supplementary Table 4, C195A: pEC50 of GHRH-induced cAMP accumulation, HEK 293T cells in [4] is 7.67 -log M. For the same molecule, the Supplementary Table 4, F187A: pEC50 of GHRH-induced cAMP accumulation, HEK 293T cells in assay [5] is 8.94 -log M. Besides, the Supplementary Table 4, H210A: pEC50 of GHRH-induced cAMP accumulation, HEK 293T cells in assay [6] is 9 -log M. Further, the Supplementary Table 4, K182A: pEC50 of GHRH-induced cAMP accumulation, HEK 293T cells in assay [7] is 7.4 -log M. Also, the Supplementary Table 4, N346A: pEC50 of GHRH-induced cAMP accumulation, HEK 293T cells in assay [8] was 8.85 -log M. In assay [9], the Supplementary Table 4, R357A: pEC50 of GHRH-induced cAMP accumulation, HEK 293T cells is 6.87 -log M. For the same molecule, the Supplementary Table 4, T213A: pEC50 of GHRH-induced cAMP accumulation, HEK 293T cells in assay [10] is 9.35 -log M. Moreover, the Supplementary Table 4, W282A: pEC50 of GHRH-induced cAMP accumulation, HEK 293T cells in assay [11] was 7.88 -log M.

Take YADAIFTNSYRKVLGQLSARKLLQDIMSRQQGESNQERGARARL (peptide, UniProt P01286 32-75, looked up) [Growth hormone-releasing hormone (GHRH)]: the “cAMP accumulation in HEK 293 T cells: fold loss of GHRH potency” value in assay [12] is roughly 200 fold; in assay [13], roughly 5 fold; in assay [14], roughly 100 fold; in assay [15], 1000 fold.
